US20020123056A1

Molecular target: PKB-sub peptide (GSK3 consensus peptide) …
Experiment: cell-based or functional assay

## GST-SGK2 fusion protein (human SGK2 with N-terminal Glutathione S-transferase tag, expressed in Hi5 insect cells) (from UniProt Q9HBY8 1-367) (enzyme)
  kinase activity, 32P incorporation; GST-SGK2 from Hi5 cells treated with Calyculin A: 92500 CCPM1
  kinase activity, 32P incorporation; GST-SGK2 from Hi5 cells treated with Microcysteine: 217 CCPM1
  kinase activity, 32P incorporation; GST-SGK2 from Hi5 cells treated with Okadaic Acid: 132000 CCPM1
  kinase activity, 32P incorporation; GST-SGK2 from untreated Hi5 cells: 979 CCPM1
